This data set deals with Saccharomyces cerevisiae. The experiment in a line: transcriptional activation domain activity (GFP:mCherry ratio, weighted mean of sorted bins, harmonized to initial dataset scale) (arbitrary fluorescence ratio units); higher = stronger transcriptional activation. The note with it: beta-estradiol 1 µM; induction time 4 h. The method in brief:
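After a 1:5 dilution into SC with 1 uM beta-estradiol and 4 hours at 30 °C, yeast diploids carrying a GFP reporter and URA3-integrated barcoded tiles were sorted into 8 bins by GFP:mCherry ratio. The tiles were fused to an estradiol-inducible synthetic transcription factor. Barcodes were sequenced, tiles below 50 reads were discarded, and activation activity was taken as the read-weighted mean of bin median fluorescence, averaged across barcodes and linearly mapped onto the initial dataset scale.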
With “VVLSVLCSLLNTTLKYNPASWRVPYDHVVFKDSKQILVTYCLQLLLVLILYPI”, the “transcriptional activation domain activity” value was 44500.
For “IIFVELYSYLLYYIYLNIRIFLRFSSSIVLDFELFCFPPSHFPFNFFVCILFT”, the “transcriptional activation domain activity” value is 74000.
In the case of “LLQLWYMHKSLVLADPTLVCPLAFCFYNLSSIINGLVYFDQFAFLSTLHLLLV”, the “transcriptional activation domain activity” value came out at 25400.
With “GEAGEAGEAGAEGTATEEREEEEEQQQKKEERKRKRKRKQQQGSGKVTVAAAK”, the “transcriptional activation domain activity” value was found to be 45000.
As to “YCAINCGGIDGLSLFMKIQWIANLDYLDIELLFGGIYYYFVCLLLVLLLLLWL”, the “transcriptional activation domain activity” value is 42700.
For the sequence “QLKVVRITFSGLGAVALTICPCTPVVEQLLQAVHLKVLYLVKELFVCIPPNTS”, the “transcriptional activation domain activity” value was 48500.
For “YYAECCTHTGNAHKVQRKMLNPVFTTKHMKARMWYQFMLLFLKEALMNELKGY”, the “transcriptional activation domain activity” value was 14300.
As to “IYGSTAKPFPYTEGYHFLLKFVTEKFEKAEVLRIVRALGLFRPSLIALQMPLT”, the “transcriptional activation domain activity” value was found to be 42800.
As for “KNNNREVEVEAREPHHKGRKNNKREVGEVEARDPHHKGRKNNKREVEVEAREP”, the “transcriptional activation domain activity” value came to 52900.
The figure for “SGKQGGRKSGSPHGRRPAIQGARRKGKQSSRKPTGKQTKQSPGKSGARKAFGK” is 42400.
On to “SPKKAAAPKKPAAKKATEAKKASVKPKAAKETKEKKEAKPKAAKAAKPAAAAP”, for which the “transcriptional activation domain activity” value worked out at 28100.
As to “QQGGGAAASSSGAAQTTSDHVHKDEKEEDKDRDKKKEEEEKEKRKKRREKNKK”, the “transcriptional activation domain activity” value came to 23700.
For the sequence “ILLYHPNFLLIAISILYIIWCFMVLIMFCVVLPTAFLLLRAALFYPPHGREFI”, the “transcriptional activation domain activity” value is 25900.
Consider “LIALPCLMAFATICFAFVAWKLYGEFAWTIYKHISADLRLKRRYLTYQIYIAL”, for which the “transcriptional activation domain activity” value worked out at 50200.
In the case of “MPPHSEIDDIFAAKHSEPAPPPPPQKKKSKKRKRDAAAATVAPAAAPPPAAPA”, the “transcriptional activation domain activity” value amounted to 46500.
For “MAASDGPSPKKRKFARAVNTCAPCARRKVKCDRESHAPCSNCRKRRETALCEP”, the “transcriptional activation domain activity” value came to 9660.
With “MSVSSPEDVTSEASGPAATAPAHEPLACVNCRSRKLKCDRQKPVCSRCAKAGG”, the “transcriptional activation domain activity” value is 46300.
Turning to “EGAAAPAPAAAEKKEEPKKAETPKAEAPKAEAPKETSSRADAAKPAAAPKAAA”, the “transcriptional activation domain activity” value turned out to be 39400.
Turning to “MPDVWLSWLVLSFAPSPPFHHFLWFWFCLIAWFIFFRPITWTFDTLFWFLFLP”, the “transcriptional activation domain activity” value turned out to be 43400.
On to “KDLNVVEGWEHQGVLRAAANTVKSVRMKESSTGGSQEKVYLKLVESTGHTLQG”, for which the “transcriptional activation domain activity” value came to 21200.
Regarding “MVFIIFFAAFYTLFLYHSSLFFTLPFASIFFLLFFVRFIFFISVFLLFFLLGL”, the “transcriptional activation domain activity” value turned out to be 51100.
For the sequence “VIDGSYTTSLKMILFLLAISGQNLLFFFILISLTFLLFLFSTCLCMILLDALI”, the “transcriptional activation domain activity” value is 22100.
The figure for “PGEVSEAEANGDAPKVEAAAKPKKKKKKAARKPKTKEEDGAPAAAPTEEAAPA” is 10100.
Regarding “ALRLCRSLLFLCFPFTPIHFFWGSYSDFPPFFFLPAFPRLTLSLLLFYLLPFS”, the “transcriptional activation domain activity” value was 55100.
“VQGTTHGRILIQAGKEIWTQELLLPYVYFILTLNPTIHTWERIKKITGYVFRA”: the “transcriptional activation domain activity” value worked out at 64200.
Take “MEFPTPTCFLSFFSFFFHIVFVAYCVAYFSLSRFLFVPSFFFLFLLSYFRLLQ”: the “transcriptional activation domain activity” value came to 67500.
As to “FCYVVVLGRVLIRFGGYQVLTLWRSCMRRLPKLGDSIWSRVFLRCVSCMSLFL”, the “transcriptional activation domain activity” value amounted to 62000.
For the sequence “LFFLSFFLGLFLFFFSLSLLLVPSSFFFLVFCLFLSFFFILSFFPRFLFFFFF”, the “transcriptional activation domain activity” value stood at 39700.
The figure for “VYYFWVRIFVFSFRSTCFCIFLFYYLYLFFLFIFLYLTSSFSSFHHLSLLLVV” is 57800; for “VPLMQFILFPPFDWLVLVASPHNPILTSEFYNHLWSLIKLITLCLPLPLFGTL” it is 61500.
For “WMIWFRVGFACIFSSCVFLRVYGLYRIFIQRKPFTRYSFYVPFTIFTVCVFIF” the value was 69400; for “PPSLVDLVANTIAACHSETTPETVSLQIVKALLSLVLSSTILVHHSSLLKAVR”, 50700.
For “KVNTNNDVNENNDLWNSYLQSMDDTTGKNSGNYQQVDNDDNMSLLNLPILEET” the value was 90400; for “MSSPTSSLFFVSPPVGCYRYLLFFFFSSFWLLFVFLRSVPFGPTLLLFFFYFN”, 42400; for “FRVASYRIWCLLGCGSVWSLIYVPLAWNDGFSLFYLLHPWKIVRVFILNVLAG”, 54700.
For “SSLMQYTLGATIGFVQSLEVRTQVLHLLVKLFQSLPQPDHFSIAQCYVYLNAP”, the “transcriptional activation domain activity” value was 57200.
For “MHTLLTILQTLHILVIFNTIVYPVCLFEICCFAWYFIPFAFRFLCLCFFFLFL”, the “transcriptional activation domain activity” value came out at 55000.
The figure for “SADTQKEEGKRAKVEKNRRGKRDGHKAGRFSGGRRKERGEASTQAGAAAAGAN” is 37500.
“KSKKRKTGEQSDEDAVAAKKRKKSAGKKVAGEEKPKKARKSQAPAEAAGGRKS”: the “transcriptional activation domain activity” value is 16500.
In the case of “FSYFYCFFFPLFTFFLFHIFVLLSIKQFLFLFLFVFLFLVLLFIVPPLFPVSV”, the “transcriptional activation domain activity” value worked out at 17300.
The figure for “DRSRATEEEDGKSTKRSRARSRTFTFSKSDKGGDGSPSKKVRSTSKSRAKHDG” is 31100; for “GVEKTAEKPSEEPAEEAPEKKAEPTTEEPEPEAAKPKARGGRPKKVIAAPKED” it is 38300; for “MGTLYPLVLPWFTGSYFLDIGIDFVFQKDTSYLGYILHTLHAPFLLSCLFLVL” it is 65000.
Turning to “GGEDALGRAAEEEGVRSGGLSSEQQDREEARGEARDRQHRVACFGGRRECAGG”, the “transcriptional activation domain activity” value is 48500.
For “NPQLFLLGGCLTLVHLLFSSLWLWLVSILFAHDREYPSFVLLSYFMIFYFWTS” the value was 54000; for “APMGRRTFAVDVDESGNSLAKKVKAARVKGYNYIIVVGERDLERGTAAVECVV”, 36000; for “HHTLPYRFRLDGHAAYLGLFIHFLSVLVVVYIFRLEVCVRYRPGWMRCQCWWR”, 81600.
Turning to “KILNCLSIRLYLCRKGFGSLPNEQLALFNFNARECLRALGVTLFKPRLYRLCY”, the “transcriptional activation domain activity” value turned out to be 80900.
In the case of “GSDAPASGRAKSKTPKATGAKNGGKGGKGDATEEAEAKREEGGEEKRAAKKSK”, the “transcriptional activation domain activity” value came out at 20000.
As for “WFRDMRFPYVPRAFSRLLKNLLVAVYVSLFNSCIFWFTSSRLHPQRRFIARYL”, the “transcriptional activation domain activity” value came out at 64800.
For “PSGSPLTPSSGKGGRSASLGDAESNKTGEPYGPHSGKAYFEVCVNVGKHAIRL”, the “transcriptional activation domain activity” value came to 37500.
For “SSEYEIGRPSEEEVTMTRMLDKVLRRSDAVDKESLCILAGQRVWHLRLTLHCL”, the “transcriptional activation domain activity” value worked out at 45500.
In the case of “ATNLFFTAAIFYFIFVVFGVILVLLYKALCELLIRSKKIGSESHLFHFIHNGW”, the “transcriptional activation domain activity” value came to 44900.
Consider “DAARGGYQSAGGAGTGSDSETNRGRGRGGRGGFRGERGGRGRGRGATPAKTEG”, for which the “transcriptional activation domain activity” value turned out to be 27200.
For “FLLDIFLLLVPSFPFSYTPFLVTSLFLVLCDIDVFLRFIYVHIYLVTLICTFM” the value was 30400.
For “FDTLLSFLLFSLSLIFFLSFLPLFCQRYFFSSFLNLVFLAFWLCCYCCCCSRG”, the “transcriptional activation domain activity” value was determined as 31700.
For the sequence “MCLRKVSSLFYIGILFVDLFPTTYVSWWFFFFFLCLNLFVLAMICFGVFWFLC”, the “transcriptional activation domain activity” value is 29300.
As for “MSSNFFGASNNAGQGSGTGASAPLFGAPKPADGGAAPAVGGLFGAKPAASGTG”, the “transcriptional activation domain activity” value came to 27300.
For “VQLSFYRNKIFLTILNYCSGLFVLLFFFYSLFRSVILQNSSLLMLYCACWIYI”, the “transcriptional activation domain activity” value turned out to be 60600.
Regarding “TWKVIGLVWRCPELTEYLNKVILTIIIIRSESHFDSSIAALNESCLTPYGTVD”, the “transcriptional activation domain activity” value was determined as 28800.
For “LIVSWSGNYVVQHHSTRINLIDFMDSNYISHLCVYLGFSIADVCYQLTMLWMI” the value was 77700; for “LPVYQLSVSPWKSKEAMDAWCMAKIESLLLDFKFLNAWVQLLVANNLQQIHIP”, 63900; for “RETDAWACGVVLYALCARRLPFGEGAARVEGESGGRIGREGGAREGAAARRHW”, 32400.
For “TFLQVCGSSSIGFSSINLSLRTMAIYGQSLYVVIALVILILGHWCLLLHGLML”, the “transcriptional activation domain activity” value worked out at 63800.
Regarding “EFEVDSIDELVLILKESEQSDMLRRIGYCRKRMMSLLRLLVTKVDVVKTITKR”, the “transcriptional activation domain activity” value was found to be 38100.
Regarding “MSPRAFFPPWFDFVHAFLVYALVARRLRLLFLPTHLAMHCTHLSLSLTLLFLL”, the “transcriptional activation domain activity” value stood at 60500.
For “PEAAPGEEVKEEAGEEQKPDRRDRRGRDRGGRGGRDRGRGRGGASRGGKRGDT”, the “transcriptional activation domain activity” value came out at 26700.
For the sequence “RLLRLLLRLLRLLLLRLLLLLLLLLLLLLLLRLLLRLLVTLILFLNIQRVLIL”, the “transcriptional activation domain activity” value came to 16300.
The figure for “FTFILMMACLVSGIGWCLLYFTCMYLLLIYYILSLFYPPLASCNSFSFFFSFV” is 64100; for “METSASARSPPPSTRQPSAPRRVRAALACQRCKGRKQKCEGGQPSCRSCIKAG” it is 60700; for “MFFLSSFSALLAFSPPPSLLLLLLLLLTFPLSGFLALFLPRFSISLLTLSFFY” it is 50700.
As to “EAERERLEREVEAENVRKAEEERKEKERLVKEARERAAREAAEREAAAAAAAA”, the “transcriptional activation domain activity” value stood at 52700.
On to “VAAVSRGEKERHRDRDREKKPSRSKPEKSSRRVVEKEEKTSSKGSASDKADKT”, for which the “transcriptional activation domain activity” value turned out to be 39700.
“AIFMSDGSQALCRLIYLIGIATRFFGLSMMLCIVVDVLNLVTFYLNVFYLIQW”: the “transcriptional activation domain activity” value amounted to 47500.

Values taken from the supplement of paper PMC12636428.
